For this test, the target named is T1, human CAPRIN-1 protein expressed on cell membrane surfaces of human cancer cells (human, UniProt Q14444 2-709).
T1 construct: whole, on cells; Endogenous protein on human cancer cells; Flow cytometry was done without permeation of the cell membranes
T1 sequence (looked up): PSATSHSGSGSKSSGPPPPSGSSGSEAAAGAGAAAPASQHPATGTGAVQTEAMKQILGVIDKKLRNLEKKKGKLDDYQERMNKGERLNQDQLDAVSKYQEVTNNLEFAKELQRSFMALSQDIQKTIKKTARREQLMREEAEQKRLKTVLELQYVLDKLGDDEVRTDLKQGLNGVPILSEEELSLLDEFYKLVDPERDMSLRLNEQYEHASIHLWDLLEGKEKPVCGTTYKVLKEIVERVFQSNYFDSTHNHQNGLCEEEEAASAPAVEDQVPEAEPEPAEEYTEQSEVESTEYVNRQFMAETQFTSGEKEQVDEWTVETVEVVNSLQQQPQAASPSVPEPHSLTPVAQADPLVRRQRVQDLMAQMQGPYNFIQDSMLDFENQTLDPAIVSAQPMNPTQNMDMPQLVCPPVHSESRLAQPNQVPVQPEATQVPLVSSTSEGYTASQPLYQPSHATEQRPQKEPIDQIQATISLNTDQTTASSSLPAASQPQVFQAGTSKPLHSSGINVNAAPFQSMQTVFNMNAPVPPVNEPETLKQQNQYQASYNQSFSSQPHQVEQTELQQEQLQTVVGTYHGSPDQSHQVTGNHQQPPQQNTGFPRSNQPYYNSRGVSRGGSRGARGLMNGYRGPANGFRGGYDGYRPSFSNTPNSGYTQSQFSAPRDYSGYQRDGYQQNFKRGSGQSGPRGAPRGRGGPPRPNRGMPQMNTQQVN
Kind of test: flow cytometry on cancer cells.

B1: anti-CAPRIN-1 antibody (a) (antibody, V domains shown)
VH: AVTLDESGGGLQMSRGGLSLVCKASGFDFSSYQMNWIRQAPGKGLEFVAAINKFGNSTGHGAAVKGRVTISRDNGQSTVRLQLNNLRAEDTAIYFCTKHAYGYCGSGTWCAAGEIDAWGHGTEVIVSS
VL: QAASTQPSSVSANPGETVEITCSGGGSYSYGWFQQKSPGSAPVTVIYYNNKRPSDIPSRFSGSKSGSTGTLTITGVQADDEAVYYCGSGDSTDTAVFGAGTTLTVLG
In the case of B1, the binding result is listed as “binds”.

B2: anti-CAPRIN-1 antibody (i) (antibody, V domains shown)
VH: GAELVRSGASVKMSCKASGYSFTDYNMYWVKQTPGQGLEWIGYIYPGNGGTNYNQKFKGKATLTADTSSSTAYMQISSLTSEDSAVYFCARDYDDGGYAMDYWGQGTTVTVSS
VL: DIQMTQSPASLSASVGETVTITCRASGNIHNYLTWYQQKQGKSPQLLVYNAKTLADGVPSRFSGSGSGTQYSLKINRLQPEDFGSYYCQHFWNIPWTFGGGTKLNSR
B2: the binding result is on record as “binds”.

B3: anti-CAPRIN-1 antibody (af) (antibody, V domains shown)
VH: EVQLVESGGGLVQPGGSLRLSCAASGFSLSSHSLGWVRQAPGKGLEWIGDIRSGGSAYYANWAKGRFTISRDNSKNTLYLQMNSLRAEDTAVYYCTRTNGPSDLTNRLDLWGQGTLVTVSS
VL: QVLTQSPSSLSASVGDRVTINCQASQSLYNNENLAWFQQKPGKVPKRLIYGASTLASGVSSRFSGSGSGTEFTLTISSLQCEDFAIYYCLGEFSCGSADCFAFGGGTKVEIK
For the molecule B3, the binding result is “binds”.

B4: anti-CAPRIN-1 antibody (ah) (antibody, V domains shown)
VH: EVQLVESGGGLVQPGGSLRLSCAASGFSLSSHSLGWVRQAPGKGLEWIGDIRSGGSAYYANWAKGRFTISRDNSKNTLYLQMNSLRAEDTAVYYCTRTNGPSDLTNRLDLWGQGTLVTVSS
VL: EQVLTQSPSSLSASVGDRVTINCQASQSLYNNENLAWFQQKPGKVPKRLIYGASTLASGVSSRFSGSGSGTEFTLTISNLQPEDFAIYYCLGEFSCGSADCFAFGGGTKVEIK
Take B4: the binding result is given as “binds”.

B5: anti-CAPRIN-1 antibody (ai) (antibody, V domains shown)
VH: EVQLVESGGGLVQPGGSLRLSCAASGFSLSSHSLGWVRQAPGKGLEWIGDIRSGGSAYYANWAKGRFTISRDNSKNTLYLQMNSLRAEDTAVYFCTRTNGPSDLTNRLDLWGQGTLVTVSS
VL: EIVLTQSPSSLSASVGDRVTINCQASQSLYNNENLAWFQQKPGKVPKRLIYGASTLASGVSSRFSGSGSGTEFTLTISNLQPEDFATYYCLGEFSCGSADCFAFGGGTKVEIK
As to B5, the binding result is given as “binds”.

B6: anti-CAPRIN-1 antibody (ak) (antibody, V domains shown)
VH: EVQLVESGGGLVQPGGSLRLSCAASGFSLSSHSLGWVRQAPGKGLEWIGDIRSGGSAYYANWAKGRFTISRDNSKNTLYLQMNSLRAEDTAVYFCTRTNGPSDLTNRLDLWGQGTLVTVSS
VL: EQVLTQSPSSLSASVGDRVTINCQASQSLYNNENLAWFQQKPGKVPKRLIYGASTLASGVSSRFSGSGSGTEFTLTISNLQPEDFAIYYCLGEFSCGSADCFAFGGGTKVEIK
B6: the binding result is given as “binds”.

B7: anti-CAPRIN-1 antibody (aj) (antibody, V domains shown)
VH: EVQLVESGGGLVQPGGSLRLSCAASGFSLSSHSLGWVRQAPGKGLEWIGDIRSGGSAYYANWAKGRFTISRDNSKNTLYLQMNSLRAEDTAVYYCTRTNGPSDLTNRLDLWGQGTLVTVSS
VL: EIVLTQSPSSLSASVGDRVTINCQASQSLYNNENLAWFQQKPGKVPKRLIYGASTLASGVSSRFSGSGSGTEFTLTISNLQPEDFATYYCLGEFSCGSADCFAFGGGTKVEIK
Take B7: the binding result was “binds”.

B8: anti-CAPRIN-1 antibody (ag) (antibody, V domains shown)
VH: EVQLVESGGGLVQPGGSLRLSCAASGFSLSSHSLGWVRQAPGKGLEWIGDIRSGGSAYYANWAKGRFTISRDNSKNTLYLQMNSLRAEDTAVYFCTRTNGPSDLTNRLDLWGQGTLVTVSS
VL: QVLTQSPSSLSASVGDRVTINCQASQSLYNNENLAWFQQKPGKVPKRLIYGASTLASGVSSRFSGSGSGTEFTLTISSLQCEDFAIYYCLGEFSCGSADCFAFGGGTKVEIK
For the molecule B8, the binding result is listed as “binds”.

B9: anti-CAPRIN-1 antibody (b) (antibody, V domains shown)
VH: EQSLVESGGGLVQPGGSLRLSCAASGFSLSSHSLGWVRQAPGKGLEWIGDIRSGGSAYYANWAKGRFTISRDNSKNTLYLQMNSLRAEDTAVYYCTRTNGPSDLTNRLDLWGQGTLVTVSS
VL: QVLTQSPSSLSASVGDRVTINCQASQSLYNNENLAWFQQKPGKVPKRLIYGASTLASGVSSRFSGSGSGTEFTLTISSLQCEDFAIYYCLGEFSCGSADCFAFGGGTKVEIK
Turning to B9, the binding result is listed as “binds”.

B10: anti-CAPRIN-1 antibody (j) (antibody, V domains shown)
VH: DAELVKPGASVKISCKASGYTFTDHSIHWVQQKPEQGLEWIGYISPGNGNIKYNEKFKGKATLTADKSSSTAYMQLNSLTSEDSAVYFCKRSLGRGGPYYFDYWGQGTTVTVSS
VL: DIVLTQAAPSLPVTPGESVSISCRSSKSLLHSNGNTYLYWFLQRPGQSPQLLIYRMSNLASGVPDRFSGSGSGTAFTLRISRVEAEDVGVYYCMQHREYPVTFGSGPN
In the case of B10, the binding result is given as “binds”.

B11: anti-CAPRIN-1 antibody (e) (antibody, V domains shown)
VH: AVTLDESGGGLQTPGGALSLVCKASGFTFSGYDMLWVRQAPGKGLEWVAGIGSTGGGTDYGAAVKGRATISRDNGQSTVRLQLNNLRAEDTATYYCAKVAGGCNSGYCRDSPGSIDAWGHGTEVIVS
VL: AVTQQPASVSANPGETVKITCSGGGSRNYYGWYQQKSPGSVPVTVIYYDDQRPSNIPSRFSGALSGSTSTLTITGVQADDEAVYFCGSADSNTYEGSFGAGTTLTVL
For B11, the binding result is on record as “binds”.

B12: anti-CAPRIN-1 antibody (d) (antibody, V domains shown)
VH: QSLEESGGDLVKPGASLTLTCTASGFSFSGSYYMSWVRQAPGKGLEWIAYIYIGDGVTAYANWAKGRFTISKASSTTVTLQMTSLTAADTATYFCARGNKLWGPGTLVTVSS
VL: DVVMTQTPASVEAAVGGTVTIKCQASQSISSYLAWYQQKPGQPPKRLIYDASNLDSGVPSRFKGSGSGTDFTITISDLECADAATYYCQCTAVSSATIYGNAFGGGTEVVVK
Regarding B12, the binding result is on record as “binds”.

B13: anti-CAPRIN-1 antibody (c) (antibody, V domains shown)
VH: AVTLDESGGGLQTPGGGLSLVCKASGFTFSSFDMGWVRQAPGKGLEFVAQINDAGSRTWYATAVKGRATISRDNGQTTVRLQLNNLRAEDTGTYYCTRGSGYVGAGAIDAWGHGTEVIVS
VL: AALTQPSSVSANPGETVKITCSGGSGYYGWYQQQKSPGSAPVTVIYQNDKRPSDIPSRFSGSGSGSTNTLTITGVQAEDEAVYFCGRYDSTDSGIFGAGTTLTVL
As to B13, the binding result was “binds”.

B14: anti-CAPRIN-1 antibody (o) (antibody, V domains shown)
VH: EVQLHQFGAELVKPGASVKISCKASGYTFTDYNMDWVKQSHGKSLEWIGDINPNYDSTSYNQKFKGKATLTVDKSSSTAYMELRSLTSEDTAVYYCARSRSYDYEGFAYWGQGTLVTVSA
VL: DIQMTQSPASLSASVGETVTITCRASGNIHNYLAWYQQKQGKSPQLLVYNAKTLADGVPSRFSGSGSGTQYSLKINSLQPEDFGSYYCQHFWSTLTFGAGTKLELKR
Regarding B14, the binding result is listed as “binds”.

B15: anti-CAPRIN-1 antibody (z) (antibody, V domains shown)
VH: GPDLVKPGASVKISCKASGYSFTAYYMHWVKQSHGKSLEWIGRVNPNNGGTTYNQKFKGKAILTVDKSSSTAYMELRSLTFEDSAVYYCARRIYYGYFDYWGQGTTVTVSS
VL: AFFAVSLGQRATISCKASQSVDYDGDSYMNWYQQKPGQPPKLLIYVASNLESGVPARFSGSGSGTDFTLNIHPVEEEDAATYYCQQSNEDPYTFGGGTKLEIKQ
Consider B15, for which the binding result was “binds”.

The values are drawn from EP4640235A1 (Toray Industries, Inc., dated 2025).
